Patent US11564995B2, “Peptide-nanoparticle conjugates” (Wisconsin Alumni Research Foundation, priority 2018, dated 2023)
Entries after “also recorded” stand apart in the source; their conditions may differ. Residues, ends and D or L forms follow the SMILES beside them. No end group written: not given here.

Tests used:
PD-L1 proteins = biological target: T1, PD-L1 proteins (Homo sapiens, UniProt Q9NZQ7); experiment: Surface plasmon resonance (SPR) binding to immobilized PD-L1
T1 construct: purchased R&D systems
Procedure: Surface plasma resonance (SPR). SPR analysis was done using a BIAcore™ X (Pharmacia Biosensor AB, Uppsala, Sweden). In short, PD-L1 proteins (R&D systems) were immobilized onto carboxylated dextran-coated gold film surface of sensor chip (CM5 sensor chip, GE Healthcare) through EDC/NHS chemistry. 30 μL of sample solution was injected at a flow rate of […]. Sample solution was allowed to flow into both channels (channel 1 for reference, channel 2 with PD-L1), and the final SPR sensorgrams were obtained by subtracting the […].

fβH2_mt/PD-L1 complex = fβH2_mt/PD-L1 complex (Homo sapiens, UniProt Q9NZQ7); experiment: Fluorescence polarization (FP) competition assay; format: binding; settings: 10 nM, PD-L1, 2 μM, FIG. 15
Procedure: Fluorescence polarization (FP) assay. FP assay in PBS was used the PD-L1 binding and competition assays (λex=480 nm; λem=535 nm). Fluorescence anisotropy measurements were performed at room temperature, in a 384-well plate, and using an Infinite® M1000 Pro microplate reader (Tecan). A fβH2_mt/PD-L1 complex was used for the FP competition assay after 30 min incubation time and titrated with the competitors.

[1] = tested on: 786-O cells (a PD-L1 overexpressing cell line); experiment: Fluorescence microscopy of cell interaction, 786-O cells; format: cell-based, Human
Procedure: (§1) Cell culture. Human renal cell carcinoma (RCC) cell line, 786-O, and breast cancer cell line, MCF-7, were utilized as high- and low-PD-L1 expressing cancer cell models, respectively. The human T lymphocyte cell line, Jurkat, was used in this study as a representative PD-1-expressing immune cells. 786-O and Jurkat T cells were cultured in RPMI media, while MCF-7 cells were grown in DMEM media. All cell culture media were supplemented with 1% (v/v) penicillin/streptomycin (P/S) and 10% (v/v) fetal bovine serum (FBS). Cells were incubated under humidified atmosphere containing 5% CO2 at 37° C.

[2] = tested on: MCF-7 cells (with a low level of PD-L1 expression); experiment: Fluorescence microscopy of cell interaction, MCF-7 cells; format: cell-based, Human; settings: treated 1 h
Procedure: as §1

786-O cells = experiment: Chemosensitivity assay with doxorubicin in cancer cell/Jurkat T cell co-culture; format: cell-based, Human; settings: 786-O cells co-cultured with Jurkat T cells, then DOX; FIG. 22
Procedure: as §1
Chemosensitivity Assay. Chemosensitivity assay was performed by measuring the synergistic cytotoxicity effect of immune checkpoint inhibitors, together with chemotherapeutic drug, doxorubicin. Cancer cells were plated in 96-well plates (5,000 cells/well) and incubated for 48 h. Cancer cells and Jurkat T cells were pre-treated with IFNγ and PHA/PMA as aforementioned. Cancer cells were then stained with calcein AM (1.5 μM), followed by 2 h treatment with ICIS. The cells were co-cultured for another 24 h in a 1:4 ratio, prior to doxorubicin (5 μM) treatment. The effect of each ICI on cancer cell survival following doxorubicin treatment (2 h) was analyzed based on changes in fluorescent intensity.

T1 sequence (Q9NZQ7 19-290): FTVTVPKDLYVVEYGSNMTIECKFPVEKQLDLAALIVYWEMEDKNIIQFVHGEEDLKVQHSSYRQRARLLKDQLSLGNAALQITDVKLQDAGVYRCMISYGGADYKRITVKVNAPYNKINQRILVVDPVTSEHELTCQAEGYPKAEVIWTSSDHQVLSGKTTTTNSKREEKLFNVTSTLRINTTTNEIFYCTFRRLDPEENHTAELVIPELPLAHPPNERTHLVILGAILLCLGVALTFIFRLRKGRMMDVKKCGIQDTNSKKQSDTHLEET
Chain of fβH2_mt/PD-L1 complex (Q9NZQ7 19-239 limits assumed, one chain of several): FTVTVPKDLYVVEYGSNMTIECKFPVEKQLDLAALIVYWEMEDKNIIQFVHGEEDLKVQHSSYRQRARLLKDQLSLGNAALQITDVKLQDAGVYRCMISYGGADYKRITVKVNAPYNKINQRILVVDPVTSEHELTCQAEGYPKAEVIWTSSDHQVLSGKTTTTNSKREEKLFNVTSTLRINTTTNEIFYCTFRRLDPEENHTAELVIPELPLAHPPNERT

PD-L1 affinity relative to βH2_mt (PD-L1 proteins; SPR) | association rate constant (ka) (PD-L1 proteins; SPR) | kon (PD-L1 proteins; SPR, read-out: association rate constant (ka)) | Molecule | PD-L1 affinity by SPR sensorgram (comparison in words) (PD-L1 proteins; immobilized PD-L1 proteins, FIG. 4 and 5) | displacement of fβH2_mt from PD-L1 / complex integrity (fβH2_mt/PD-L1 complex) | cell interaction (Rhodamine fluorescence) ([1]; 786-O cells, treated 1 h) | PD-L1 selectivity (786-O vs MCF-7 cells) ([1]; fluorescence microscopy, 786-O vs MCF-7) | cell interaction (Rhodamine fluorescence) [2] | decrease of cell viability compared to cells treated with doxorubicin only (786-O cells)
five orders of magnitude higher | 2.52×10^5 | – | G7-βH2_mt: βH2_mt peptides attached to the surface of generation seven (G7) PAMAM dendrimers, rhodamine labelled; about 30 peptides per dendrimer (HVVWHRESPSGQTDTKAA; also: attached to surface of G7 PAMAM dendrimers, about 30 peptides per dendrimer, rhodamine labelled) | higher affinity to immobilized PD-L1 proteins than G7-βH1_mt; also recorded: higher than that of the wildtype βH2-dendrimer conjugate control (G7-βH2_wt) | dose-dependent displacement of fβH2_mt from PD-L1; also recorded: more effective competitiveness than aPDL1 antibodies | strong cell interactions | high PD-L1 selectivity | interacted significantly less | 8.4±3.8%
– | – | 1070 M⁻¹ s⁻¹ | CC(C)[C@H](NC(=O)[C@@H](NC(=O)[C@@H](N)Cc1c[nH]cn1)C(C)C)C(=O)N[C@@H](Cc1c[nH]c2ccccc12)C(=O)N[C@@H](Cc1c[nH]cn1)C(=O)N[C@@H](CCCNC(=N)N)C(=O)N[C@@H](CCC(=O)O)C(=O)N[C@@H](CO)C(=O)N1CCC[C@H]1C(=O)N[C@@H](CO)C(=O)NCC(=O)N[C@@H](CCC(N)=O)C(=O)N[C@H](C(=O)N[C@@H](CC(=O)O)C(=O)N[C@H](C(=O)N[C@@H](CCCCN)C(=O)N[C@@H](C)C(=O)N[C@@H](C)C(N)=O)[C@@H](C)O)[C@@H](C)O [βH2_mt, HVVWHRESPSGQTDTKAA] (H-HVVWHRESPSGQTDTKAA-NH2; N-terminus and C-terminus assumed) | – | – | – | – | – | –
